Experimental data from patent US20220409739A1 (OXFORD UNIVERSITY INNOVATION, published 2022).

B1: GAPDH-cMyc protein (enzyme)
chain: not shown
notes: also called GAPDH-cMye; not shown: cMyc tag

Legend:
Assay in all cases: co-immunoprecipitation on cMyc beads from HEK293T cell lysate, western blot
[1] = biological target: Argonuate 2 (Ago2) (UniProt Q9UKV8 1-859)
[2] = biological target: Insulin triphosphate receptor 3 (IPR3) (UniProt Q14573 1-2671)
[3] = biological target: B1

Chain of Insulin triphosphate receptor 3 (IPR3) (Q14573 whole entry): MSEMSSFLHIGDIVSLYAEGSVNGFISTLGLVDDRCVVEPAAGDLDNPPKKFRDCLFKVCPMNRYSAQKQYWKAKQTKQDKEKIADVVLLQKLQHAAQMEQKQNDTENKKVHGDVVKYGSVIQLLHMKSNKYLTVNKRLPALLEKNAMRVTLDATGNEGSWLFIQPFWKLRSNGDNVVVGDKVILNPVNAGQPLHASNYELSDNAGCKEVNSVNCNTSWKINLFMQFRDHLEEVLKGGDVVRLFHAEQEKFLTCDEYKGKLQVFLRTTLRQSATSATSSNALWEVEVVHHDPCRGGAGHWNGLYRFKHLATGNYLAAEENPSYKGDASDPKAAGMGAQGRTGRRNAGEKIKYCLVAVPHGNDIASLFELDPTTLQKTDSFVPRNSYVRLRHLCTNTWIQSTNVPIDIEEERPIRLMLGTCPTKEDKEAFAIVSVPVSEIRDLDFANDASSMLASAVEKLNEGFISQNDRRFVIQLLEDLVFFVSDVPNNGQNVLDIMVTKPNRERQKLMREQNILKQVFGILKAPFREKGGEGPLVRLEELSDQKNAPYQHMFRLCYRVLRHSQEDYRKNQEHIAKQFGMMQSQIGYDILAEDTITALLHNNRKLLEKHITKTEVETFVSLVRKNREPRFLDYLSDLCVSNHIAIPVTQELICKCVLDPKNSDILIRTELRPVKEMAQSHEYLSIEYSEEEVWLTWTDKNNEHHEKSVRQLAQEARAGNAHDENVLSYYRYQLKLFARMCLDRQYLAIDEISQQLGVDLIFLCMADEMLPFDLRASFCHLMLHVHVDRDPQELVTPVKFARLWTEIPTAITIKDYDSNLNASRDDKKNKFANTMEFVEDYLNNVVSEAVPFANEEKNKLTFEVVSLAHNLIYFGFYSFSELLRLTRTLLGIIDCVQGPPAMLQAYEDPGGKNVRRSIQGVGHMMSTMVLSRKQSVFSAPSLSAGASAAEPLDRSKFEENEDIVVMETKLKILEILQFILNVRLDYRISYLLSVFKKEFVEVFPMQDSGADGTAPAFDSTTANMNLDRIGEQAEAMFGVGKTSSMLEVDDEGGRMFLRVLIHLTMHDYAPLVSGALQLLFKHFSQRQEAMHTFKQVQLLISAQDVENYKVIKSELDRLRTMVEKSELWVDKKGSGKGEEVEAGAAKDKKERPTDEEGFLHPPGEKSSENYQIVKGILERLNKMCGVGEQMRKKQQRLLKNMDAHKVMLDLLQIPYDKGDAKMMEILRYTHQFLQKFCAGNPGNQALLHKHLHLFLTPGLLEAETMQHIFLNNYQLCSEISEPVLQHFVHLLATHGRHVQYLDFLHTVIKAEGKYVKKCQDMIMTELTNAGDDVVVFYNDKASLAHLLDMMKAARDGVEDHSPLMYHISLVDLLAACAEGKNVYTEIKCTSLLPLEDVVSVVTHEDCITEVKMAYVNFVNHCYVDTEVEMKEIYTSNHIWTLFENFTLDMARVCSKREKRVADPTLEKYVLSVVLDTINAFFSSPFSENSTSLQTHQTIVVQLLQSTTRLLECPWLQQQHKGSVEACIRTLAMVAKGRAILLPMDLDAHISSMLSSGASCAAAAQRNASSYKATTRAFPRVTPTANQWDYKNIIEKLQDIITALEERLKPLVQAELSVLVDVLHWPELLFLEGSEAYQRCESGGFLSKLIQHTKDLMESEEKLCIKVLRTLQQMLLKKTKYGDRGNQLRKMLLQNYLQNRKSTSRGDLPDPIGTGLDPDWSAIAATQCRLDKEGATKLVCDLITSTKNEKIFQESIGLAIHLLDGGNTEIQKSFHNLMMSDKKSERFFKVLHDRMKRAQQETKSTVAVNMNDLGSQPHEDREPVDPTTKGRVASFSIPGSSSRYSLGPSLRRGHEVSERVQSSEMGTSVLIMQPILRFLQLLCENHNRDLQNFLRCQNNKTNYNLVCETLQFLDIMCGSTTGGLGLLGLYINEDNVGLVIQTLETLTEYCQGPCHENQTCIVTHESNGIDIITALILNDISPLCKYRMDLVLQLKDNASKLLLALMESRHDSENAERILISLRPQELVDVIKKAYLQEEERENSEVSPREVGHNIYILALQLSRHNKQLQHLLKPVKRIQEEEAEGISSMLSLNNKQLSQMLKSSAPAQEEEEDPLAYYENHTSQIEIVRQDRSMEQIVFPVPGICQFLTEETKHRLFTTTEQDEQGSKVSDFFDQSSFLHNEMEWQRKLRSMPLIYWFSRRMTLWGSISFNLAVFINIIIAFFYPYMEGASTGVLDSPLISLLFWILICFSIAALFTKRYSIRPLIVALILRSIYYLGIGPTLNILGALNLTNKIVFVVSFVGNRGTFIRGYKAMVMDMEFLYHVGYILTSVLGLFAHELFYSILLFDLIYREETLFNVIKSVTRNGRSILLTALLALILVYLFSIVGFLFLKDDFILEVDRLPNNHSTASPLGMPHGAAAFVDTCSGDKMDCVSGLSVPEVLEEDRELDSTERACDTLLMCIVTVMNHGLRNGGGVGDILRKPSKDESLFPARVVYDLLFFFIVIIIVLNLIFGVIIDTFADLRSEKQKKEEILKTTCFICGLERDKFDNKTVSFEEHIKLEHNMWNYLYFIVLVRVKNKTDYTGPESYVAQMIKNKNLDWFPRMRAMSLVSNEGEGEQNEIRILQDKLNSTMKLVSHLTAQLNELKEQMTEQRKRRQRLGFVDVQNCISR
Chain of Argonuate 2 (Ago2) (Q9UKV8 whole entry): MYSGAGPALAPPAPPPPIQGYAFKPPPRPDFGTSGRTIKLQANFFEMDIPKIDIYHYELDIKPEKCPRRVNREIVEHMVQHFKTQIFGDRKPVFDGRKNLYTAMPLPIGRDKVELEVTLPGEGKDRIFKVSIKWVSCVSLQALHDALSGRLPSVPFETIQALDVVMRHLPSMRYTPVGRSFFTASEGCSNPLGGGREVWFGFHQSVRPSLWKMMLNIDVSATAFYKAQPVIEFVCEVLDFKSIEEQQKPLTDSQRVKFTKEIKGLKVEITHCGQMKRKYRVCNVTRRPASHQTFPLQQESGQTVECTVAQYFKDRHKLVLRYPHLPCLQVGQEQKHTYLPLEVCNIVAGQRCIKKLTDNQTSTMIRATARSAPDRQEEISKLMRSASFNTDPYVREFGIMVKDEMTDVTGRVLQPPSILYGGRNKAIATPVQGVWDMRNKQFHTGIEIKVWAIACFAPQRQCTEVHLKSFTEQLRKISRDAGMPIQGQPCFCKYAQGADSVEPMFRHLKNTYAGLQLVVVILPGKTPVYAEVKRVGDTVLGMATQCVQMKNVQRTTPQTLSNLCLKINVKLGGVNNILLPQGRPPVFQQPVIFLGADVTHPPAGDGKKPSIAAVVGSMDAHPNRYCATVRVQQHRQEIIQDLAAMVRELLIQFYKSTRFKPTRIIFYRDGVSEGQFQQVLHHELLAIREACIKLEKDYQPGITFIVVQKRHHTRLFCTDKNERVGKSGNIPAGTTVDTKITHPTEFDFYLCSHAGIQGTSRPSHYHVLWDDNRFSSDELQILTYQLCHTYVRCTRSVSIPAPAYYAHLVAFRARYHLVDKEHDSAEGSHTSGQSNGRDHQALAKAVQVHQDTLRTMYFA

Row | binding result [1] | binding result [2] | binding result [3] | Binder
1 | no binding | no binding |  | B1
2 |  |  | no binding | mitochondrial import receptor subunit TOM20 (other, UniProt Q15388 1-145, looked up) MVGRNSAIAAGVCGALFIGYCIYFDRKRRSDPNFKNRLRERRKKQKLAKERAGLSKLPDLKDAEAVQKFFLEEIQLGEELLAQGEYEKGVDHLTNAIAVCGQPQQLLQVLQQTLPPPVFQMLLTKLPTISQRIVSAQSLAEDDVE
